From patent US20210101998A1 (Pfizer, published 2021)
Numbering of substitutions follows the chain as printed. Where two headings read alike, the source gives them in different places.

T1: rabTFPI K1K2 (rabbit, limits assumed)
T1 construct: also called Rabbit TFPI K1K2; rabbit TFPI
T1 chain: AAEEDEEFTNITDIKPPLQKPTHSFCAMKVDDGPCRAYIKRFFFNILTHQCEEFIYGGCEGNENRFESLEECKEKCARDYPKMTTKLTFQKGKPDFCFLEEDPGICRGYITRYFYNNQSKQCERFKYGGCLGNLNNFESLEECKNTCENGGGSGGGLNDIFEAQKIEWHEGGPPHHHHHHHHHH

T2: ratTFPI K1K2 (rat)
T2 chain: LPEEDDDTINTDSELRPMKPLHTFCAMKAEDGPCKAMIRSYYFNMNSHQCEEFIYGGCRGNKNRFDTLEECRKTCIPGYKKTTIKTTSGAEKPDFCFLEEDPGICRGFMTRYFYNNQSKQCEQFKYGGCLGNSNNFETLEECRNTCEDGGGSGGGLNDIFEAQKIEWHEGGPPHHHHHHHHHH

T3: murTFPI K1K2 (mouse)
T3 construct: also called Mouse TFPI K1K2; mouse TFPI
T3 chain: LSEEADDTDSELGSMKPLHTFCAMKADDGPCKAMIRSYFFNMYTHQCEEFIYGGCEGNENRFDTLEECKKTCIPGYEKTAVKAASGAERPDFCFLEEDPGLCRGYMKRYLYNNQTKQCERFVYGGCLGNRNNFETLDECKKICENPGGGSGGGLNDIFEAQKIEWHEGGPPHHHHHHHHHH

T4: cyno K1 (cynomolgus monkey, UniProt Q28864 29-115 (rhesus entry), limits assumed)
T4 construct: also called K1 domain alone
T4 chain: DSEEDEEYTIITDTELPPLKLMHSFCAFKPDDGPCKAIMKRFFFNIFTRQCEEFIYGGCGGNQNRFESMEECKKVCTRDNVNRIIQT

B1: hz4D8 (antibody, human IgG1, kappa, V domains shown)
VH: EVQLVESGGGLVQPGGSLRLSCAASGYTFTDYNLDWVRQAPGKGLEWVADINPINGATLYNQKFKGRFTISRDQAKNSLYLQMNSLRAEDTAVYYCARYYGDYDAMDYWGQGTLVTVSS
VL: DIQMTQSPSSLSASVGDRVTITCKASQDVHTAVAWYQQKPGKAPKLLIYWASTRHTGVPSRFSGSGSGTDYTLTISSLQPEDFATYYCQQHYTTPYTFGQGTKLEIKR
notes: also called 4D8-Vk1.1 × VH1.4; 4D8 Vk 1.1 × VH 1.4
B2: TFPI-24 (antibody, human IgG1, lambda, V domains shown)
VH: EVQLVESGGGSVQPGRSLRLSCAVSGLTIDNYAMQWVRQRPGKGLEWVSGISGNSRSIGYADSVKGRLTISRDNAKNSLYLQIDSLRADDTALYYCAIFLHESDYWGQGTLVTVSS
VL: QSVLTQPPSVSGTPGQRVTISCSGSTSNIGTMYVHWYQHVPGTAPKLLIYRNNHRPSGVPDRFSGSKSGTSGSLAISGLRSEDEADYYCLAWDDTLRAYVFGTGTKVTVLG
notes: Human IgG1-3M from phage display; also called mAb-TFPI-24; clone 24
B3: TFPI-118 (antibody, human IgG1, lambda, V domains shown)
VH: B2 VH with S11L, R40A, L68F, I83M, D84N, D89E
VL: B2 VL with V10A, H39Q, V40L, G72A
notes: Germlined variant of TFPI-24: VL of TFPI-113 paired with VH of TFPI-108
B4: 2A8 (antibody, human IgG1, lambda, V domains shown)
VH: QVQLVESGGGLVQPGGSLRLSCAASGFTFRSYGMSWVRQAPGKGLEWVSSIRGSSSSTYYADSVKGRFTISRDNSKNTLYLQMNSLRAEDTAVYYCARKYRYWFDYWGQGTLVTVSS
VL: DIELTQPPSVSVAPGQTARISCSGDNLRNYYAHWYQQKPGQAPVVVIYYDNNRPSGIPERFSGSNSGNTATLTISGTQAEDEADYYCQSWDDGVPVFGGGTKLTVLG
B5: 2A8-200 (antibody, human IgG1, lambda, V domains shown)
VH: B4 VH with S35D, S55R, K99L
VL: B4 VL with Y48F, N51V, D91W
notes: also called Anti-TFPI-2A8-200

Assays:
rabTFPI K1K2 [1] = target: T1, rabTFPI K1K2; assay: SPR, summary table
Protocol: (§1) The flow cells were activated by injecting a 1:1 mixture of 400 mM 1-Ethyl-3-(3-dimethylaminopropyl) carbodiimide hydrochloride (EDC) and N-hydroxysuccinimide (NHS) for 7 minutes at a flow rate of 10 μl/minute. Anti-human IgG antibody was diluted to 25 μg/ml in 10 mM Sodium Acetate pH 5.0 and injected over all flow cells for 7 minutes at 10 ul/minute. All flow cells were blocked with 1 M Ethanolamine-HCL (ETH) for 7 minutes at 10 μl/minute. Final immobilization level of the capture antibody was approximately 10,000 resonance units (RU). The running buffer for immobilization and kinetics was 10 mM HEPES pH 7.4, 150 mM NaCl, 3 mM EDTA, 0.05% (v/v) Tween-20 (HBS-EP+). […] Flow cell 1 was used as a reference surface. […] At the end of each cycle, the entire anti-IgG surface was regenerated by a 60 second pulse of 3 M MgCl2. Kinetic assays were conducted at 25° C. at a collection rate of 10 Hz on a BIAcore T200 instrument (GE Healthcare). Rate constants and affinities were determined by fitting the data to a 1:1 model in BIAcore T200 Evaluation software version 1.0 (GE).

humTFPI K1K2 [2] = target: T5, humTFPI K1K2 (human); assay: SPR, summary table
T5 construct: Biotinylated on the AviTag for ELISA; also called Human TFPIα K1K2; humTFPI K1K2-aviHis10
Protocol: as §1

ratTFPI K1K2 [3] = target: T2, ratTFPI K1K2; assay: SPR, summary table
Protocol: as §1

cynTFPI K1K2 [4] = target: T6, cynTFPI K1K2 (cynomolgus monkey); assay: SPR, summary table
T6 construct: also called Cynomolgus Monkey TFPI K1K2; cyno TFPI K1K2
Protocol: as §1

murTFPI K1K2 [5] = target: T3, murTFPI K1K2; assay: SPR, summary table
Protocol: as §1

humTFPI K1K2 [6] = target: T5, humTFPI K1K2; assay: SPR, antibody ligand, TFPI analyte
Protocol: as §1

humTFPI K1K2 [7] = target: T5, humTFPI K1K2; assay: cell-based or functional assay
rabTFPI K1K2 [8] = target: T1, rabTFPI K1K2; assay: SPR, antibody ligand, TFPI analyte;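 also: surface plasmon resonance on a BIAcore T200 at 25 °C, test antibody captured on immobilized anti-human IgG, TFPI K1K2 flowed as analyte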
Protocol: as §1

humTFPI K1K2 [9] = target: T5, humTFPI K1K2; assay: SPR, antibody ligand, TFPI analyte; remark: listed apart in the source
Protocol: as §1

cynTFPI K1K2 [10] = target: T6, cynTFPI K1K2; assay: SPR, antibody ligand, TFPI analyte;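 also: surface plasmon resonance on a BIAcore T200 at 25 °C, test antibody captured on immobilized anti-human IgG, TFPI K1K2 flowed as analyte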
Protocol: as §1

humTFPI K1K2 [11] = target: T5, humTFPI K1K2; assay: cell-based or functional assay; remark: listed apart in the source
rabTFPI K1K2 [12] = target: T1, rabTFPI K1K2; assay: ELISA, biotinylated TFPI on streptavidin plate
humTFPI K1K2 [13] = target: T5, humTFPI K1K2; assay: ELISA, biotinylated TFPI on streptavidin plate
humTFPI K1K2 [14] = target: T5, humTFPI K1K2; assay: cell-based or functional assay; remark: listed apart in the source
humTFPI K1K2 [15] = target: T5, humTFPI K1K2; assay: SPR, antibody ligand, TFPI analyte; remark: listed apart in the source
murTFPI K1K2 [16] = target: T3, murTFPI K1K2; assay: SPR, antibody ligand, TFPI analyte
humTFPI K1K2 [17] = target: T5, humTFPI K1K2; assay: SPR, antibody ligand, TFPI analyte; remark: listed apart in the source
Protocol: as §1

ratTFPI K1K2 [18] = target: T2, ratTFPI K1K2; assay: SPR, antibody ligand, TFPI analyte;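 also: surface plasmon resonance on a BIAcore T200 at 25 °C, test antibody captured on immobilized anti-human IgG, TFPI K1K2 flowed as analyte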
Protocol: as §1

cyno TFPI K2 = target: T7, cyno TFPI K2 (cynomolgus monkey, UniProt Q28864 116-177 (rhesus entry), limits assumed); assay: not told
T7 construct: K2 fragment cut out of cynTFPI K1K2 with human neutrophil elastase, residual AviTag trimmed with AspN; also called Cynomolgus TFPI K2 domain; cyno K2
Protocol: Based on buried surface area (BSA) and percent BSA (% BSA) for residues at the Fab TFPI K1K2 interface, the epitope and paratope of the complex were determined.

murTFPI K1K2 [19] = target: T3, murTFPI K1K2; assay: SPR, antibody ligand, TFPI analyte
Protocol: as §1

cyno K1 = target: T4, cyno K1; assay: not told

Binder	Kd (rabTFPI K1K2 [1])	Kd (humTFPI K1K2 [2])	Kd (cynTFPI K1K2 [4])	FVIIa/TF/Xa EC50 (humTFPI K1K2 [7])	Xa Inhibition Assay EC50 (humTFPI K1K2 [7])	Kd (rabTFPI K1K2 [8])	koff (rabTFPI K1K2 [8])	kon (rabTFPI K1K2 [8])	Kd (humTFPI K1K2 [9])	koff (humTFPI K1K2 [9])	kon (humTFPI K1K2 [9])	Kd (cynTFPI K1K2 [10])	koff (cynTFPI K1K2 [10])	kon (cynTFPI K1K2 [10])	binding result (cyno TFPI K2)	Kd (murTFPI K1K2 [19])	koff (murTFPI K1K2 [19])	kon (murTFPI K1K2 [19])	binding result (cyno K1)	other results
B1	0.502 nM	0.42 nM	0.067 nM	0.4 nM	6.92 nM	0.502 nM	0.0029 s⁻¹	3.16e+06 M⁻¹ s⁻¹	0.42 nM	0.00132 s⁻¹	3.16e+06 M⁻¹ s⁻¹	0.067 nM	0.00195 s⁻¹	2.93e+07 M⁻¹ s⁻¹	–	–	–	–	–	binding result (ratTFPI K1K2 [3]): no binding; binding result (murTFPI K1K2 [5]): no binding; Kd (humTFPI K1K2 [6]): 0.293 nM; koff (humTFPI K1K2 [6]): 5.28e-05 s⁻¹; kon (humTFPI K1K2 [6]): 221000 M⁻¹ s⁻¹; FXa EC50 (humTFPI K1K2 [11]): 1.87 nM; FXa-FVIIa EC50 (humTFPI K1K2 [11]): 1.57 nM; EC50 (rabTFPI K1K2 [12]): 0.0716 nM; EC50 (humTFPI K1K2 [13]): 0.0493 nM
B2	–	–	–	–	–	–	–	–	–	–	–	–	–	–	–	–	–	–	–	FXa EC50 (humTFPI K1K2 [14]): 23 nM; FXa-FVIIa EC50 (humTFPI K1K2 [14]): 9.3 nM; Kd (humTFPI K1K2 [15]): 5.46 nM; koff (humTFPI K1K2 [15]): 0.000862 s⁻¹; kon (humTFPI K1K2 [15]): 159000 M⁻¹ s⁻¹; Kd (murTFPI K1K2 [16]): 24.1 nM; koff (murTFPI K1K2 [16]): 0.00596 s⁻¹; kon (murTFPI K1K2 [16]): 248000 M⁻¹ s⁻¹; koff (humTFPI K1K2 [17]): 0.000862 s⁻¹; kon (humTFPI K1K2 [17]): 159000 M⁻¹ s⁻¹
B3	5.79 nM	–	–	4.03 nM	20.8 nM	5.79 nM	–	–	–	–	–	–	–	–	–	–	–	–	–	Kd (ratTFPI K1K2 [3]): 3.65 nM; Kd (ratTFPI K1K2 [18]): 3.65 nM
B4	–	–	–	–	–	1.69 nM	0.00123 s⁻¹	730000 M⁻¹ s⁻¹	10.6 nM	0.00377 s⁻¹	355000 M⁻¹ s⁻¹	13.2 nM	0.00306 s⁻¹	237000 M⁻¹ s⁻¹	no binding	33.6 nM	0.00632 s⁻¹	191000 M⁻¹ s⁻¹	no binding	–
B5	0.145 nM	0.327 nM	0.637 nM	4.84 nM	2.42 nM	0.145 nM	0.000277 s⁻¹	1.92e+06 M⁻¹ s⁻¹	0.327 nM	0.000381 s⁻¹	1.16e+06 M⁻¹ s⁻¹	0.637 nM	0.000809 s⁻¹	1.25e+06 M⁻¹ s⁻¹	no binding	0.455 nM	0.00117 s⁻¹	2.54e+06 M⁻¹ s⁻¹	no binding	Kd (murTFPI K1K2 [5]): 0.455 nM
